Target: T1, β1 adrenergic receptor (β1AR) (Homo sapiens, UniProt P08588)
T1 construct: expressed in transfected cells
Assay: Confocal trafficking and colocalization with β1AR
Format: cell-based
Conditions: HEK-293 cells with stable β1AR expression
Protocol: Immunostaining and confocal microscopy. […] Twenty-four hours post-transfection, cells were serum-starved for 4 h, and either left untreated or treated with respective agonists for the indicated times in the Figure descriptions. After stimulation, cells were fixed with 5% formaldehyde diluted in phosphate-buffered saline (PBS), permeabilized with 0.1% Triton in PBS containing 2% bovine serum albumin for 20 min and incubated at room temperature with appropriate primary antibody. The next day, cells were washed three times with PBS and incubated with Alexa594 conjugated secondary antibody for 1 h, followed by repeated washes using PBS. Confocal images were acquired using Zeiss LSM510 laser-scanning microscope using multitrack sequential with excitation (488 and 568 nm) and emission (BP 505-550 nm and LP 585 nm) filter sets. Images (1024×1024 pixels) were collected using either a 63× or 100× oil immersion lens. Images were processed for Figure presentation using Adobe Photoshop software, and any increase or decrease of brightness/contrast was applied to the entire image. The nuclear rim localization of YFP-βarrestin2-SUMO1 is readily visualized in cells with low to moderate expression of YFP-protein. In cells with high expression, this localization is present, and can be discerned by enlarging sections of the nuclear rim.

T1 sequence (P08588 whole entry, species assumed): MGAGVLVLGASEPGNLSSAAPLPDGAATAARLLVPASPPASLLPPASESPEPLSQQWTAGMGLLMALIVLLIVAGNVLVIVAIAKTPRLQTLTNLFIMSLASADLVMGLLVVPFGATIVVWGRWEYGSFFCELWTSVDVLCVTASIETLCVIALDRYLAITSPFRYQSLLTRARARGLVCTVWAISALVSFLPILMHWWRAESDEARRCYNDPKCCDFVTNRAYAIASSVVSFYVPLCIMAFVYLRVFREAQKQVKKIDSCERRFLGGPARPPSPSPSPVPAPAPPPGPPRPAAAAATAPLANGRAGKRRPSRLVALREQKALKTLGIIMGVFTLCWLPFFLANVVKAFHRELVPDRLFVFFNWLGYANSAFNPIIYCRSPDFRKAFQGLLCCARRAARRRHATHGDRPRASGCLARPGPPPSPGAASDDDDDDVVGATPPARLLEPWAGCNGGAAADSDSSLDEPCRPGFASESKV

βarrestin2-SUMO1: rat βarrestin2 polypeptide fused to human SUMO1 (SEQ ID NO:1); used YFP- or Flag-tagged
association with β1AR after isoproterenol activation (confocal): strongly and stably

Source: patent US20230227514A1, “BETA-ARRESTIN COMPOSITIONS AND ASSOCIATED METHODS” (Duke University, priority 2020, published 2023)
